Source: patent publication US20250262210A1 (TRUSTEES OF COLUMBIA UNIVERSITY IN THE CITY OF NEW YORK, published 2025)

Tests used:
Test in all cases: IP/MS, LZTR1 wild type-FLAG, U87
MTR = MTR (human, UniProt Q99707 1-1265, limits assumed)
Outline: (§1)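 Read-out: spectral counts from LC-MS/MS (Orbitrap Fusion) after MaxQuant identification. Variable modifications were Met oxidation, protein N-terminal acetylation and N/Q deamidation.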

POLR3A = biological target: T1, POLR3A (human, UniProt O14802 1-1390)
T1 sequence (looked up): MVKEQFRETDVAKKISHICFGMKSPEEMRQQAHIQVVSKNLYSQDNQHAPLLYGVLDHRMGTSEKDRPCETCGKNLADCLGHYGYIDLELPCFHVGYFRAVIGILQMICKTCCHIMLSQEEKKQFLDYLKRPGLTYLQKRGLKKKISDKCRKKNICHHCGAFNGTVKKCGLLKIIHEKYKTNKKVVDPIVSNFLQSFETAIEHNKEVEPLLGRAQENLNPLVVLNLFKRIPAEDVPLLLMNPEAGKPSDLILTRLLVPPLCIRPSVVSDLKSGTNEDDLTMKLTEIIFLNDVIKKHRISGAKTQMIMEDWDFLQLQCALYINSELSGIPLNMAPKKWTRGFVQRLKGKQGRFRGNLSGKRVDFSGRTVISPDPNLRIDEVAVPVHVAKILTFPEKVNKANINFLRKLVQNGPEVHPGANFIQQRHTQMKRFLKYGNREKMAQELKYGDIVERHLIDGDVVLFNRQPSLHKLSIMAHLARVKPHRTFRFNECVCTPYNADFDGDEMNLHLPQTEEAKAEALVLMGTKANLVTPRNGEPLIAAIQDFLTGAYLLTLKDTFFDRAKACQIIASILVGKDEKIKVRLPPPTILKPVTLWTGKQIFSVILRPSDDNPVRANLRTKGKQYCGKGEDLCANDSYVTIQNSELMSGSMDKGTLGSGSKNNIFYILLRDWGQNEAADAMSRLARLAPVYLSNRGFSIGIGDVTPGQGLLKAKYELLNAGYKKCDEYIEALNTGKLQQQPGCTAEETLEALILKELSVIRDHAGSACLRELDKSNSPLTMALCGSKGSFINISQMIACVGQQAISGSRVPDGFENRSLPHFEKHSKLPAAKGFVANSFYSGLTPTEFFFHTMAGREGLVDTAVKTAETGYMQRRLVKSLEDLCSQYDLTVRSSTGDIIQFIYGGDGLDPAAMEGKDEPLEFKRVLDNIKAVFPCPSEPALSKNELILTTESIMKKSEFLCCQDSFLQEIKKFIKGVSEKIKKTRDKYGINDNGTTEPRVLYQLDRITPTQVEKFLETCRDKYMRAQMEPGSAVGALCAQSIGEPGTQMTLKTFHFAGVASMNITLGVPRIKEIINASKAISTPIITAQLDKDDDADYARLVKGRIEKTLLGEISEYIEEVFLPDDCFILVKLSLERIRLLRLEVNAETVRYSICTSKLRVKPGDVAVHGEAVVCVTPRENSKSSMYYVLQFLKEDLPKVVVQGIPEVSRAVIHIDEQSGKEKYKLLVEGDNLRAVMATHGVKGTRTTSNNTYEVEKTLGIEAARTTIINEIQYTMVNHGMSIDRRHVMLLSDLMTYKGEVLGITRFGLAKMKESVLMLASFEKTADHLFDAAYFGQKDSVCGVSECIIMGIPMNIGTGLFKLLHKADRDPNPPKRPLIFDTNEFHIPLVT
Outline: as §1

CC2D1A = biological target: T2, CC2D1A (human, UniProt Q6P1N0 1-951, limits assumed)
T2 sequence (looked up): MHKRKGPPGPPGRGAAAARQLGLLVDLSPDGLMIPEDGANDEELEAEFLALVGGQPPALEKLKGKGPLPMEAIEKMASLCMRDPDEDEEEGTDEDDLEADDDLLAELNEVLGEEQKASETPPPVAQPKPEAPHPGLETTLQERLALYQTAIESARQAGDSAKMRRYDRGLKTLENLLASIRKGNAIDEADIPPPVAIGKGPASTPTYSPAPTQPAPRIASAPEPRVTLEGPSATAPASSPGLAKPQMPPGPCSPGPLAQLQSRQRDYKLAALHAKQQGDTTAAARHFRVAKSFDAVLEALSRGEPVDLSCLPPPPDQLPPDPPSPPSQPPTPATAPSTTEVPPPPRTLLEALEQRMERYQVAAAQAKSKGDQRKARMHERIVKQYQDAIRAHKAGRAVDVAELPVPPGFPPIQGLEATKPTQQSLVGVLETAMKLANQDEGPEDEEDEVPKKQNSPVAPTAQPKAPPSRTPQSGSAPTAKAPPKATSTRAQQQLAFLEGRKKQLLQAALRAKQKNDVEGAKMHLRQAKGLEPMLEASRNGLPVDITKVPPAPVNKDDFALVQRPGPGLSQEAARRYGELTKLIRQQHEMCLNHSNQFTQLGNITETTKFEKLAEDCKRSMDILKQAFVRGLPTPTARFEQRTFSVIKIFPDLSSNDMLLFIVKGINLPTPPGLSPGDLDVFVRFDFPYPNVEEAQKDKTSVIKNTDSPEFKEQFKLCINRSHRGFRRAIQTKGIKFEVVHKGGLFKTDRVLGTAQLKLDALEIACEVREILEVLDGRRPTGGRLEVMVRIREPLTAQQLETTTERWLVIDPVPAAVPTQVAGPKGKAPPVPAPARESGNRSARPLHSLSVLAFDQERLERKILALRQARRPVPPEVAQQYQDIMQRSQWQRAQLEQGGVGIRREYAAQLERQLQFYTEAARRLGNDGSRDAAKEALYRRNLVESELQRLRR
Outline: as §1

Measured: binding result

Chain of MTR (Q99707 whole entry, the tested form may be a part): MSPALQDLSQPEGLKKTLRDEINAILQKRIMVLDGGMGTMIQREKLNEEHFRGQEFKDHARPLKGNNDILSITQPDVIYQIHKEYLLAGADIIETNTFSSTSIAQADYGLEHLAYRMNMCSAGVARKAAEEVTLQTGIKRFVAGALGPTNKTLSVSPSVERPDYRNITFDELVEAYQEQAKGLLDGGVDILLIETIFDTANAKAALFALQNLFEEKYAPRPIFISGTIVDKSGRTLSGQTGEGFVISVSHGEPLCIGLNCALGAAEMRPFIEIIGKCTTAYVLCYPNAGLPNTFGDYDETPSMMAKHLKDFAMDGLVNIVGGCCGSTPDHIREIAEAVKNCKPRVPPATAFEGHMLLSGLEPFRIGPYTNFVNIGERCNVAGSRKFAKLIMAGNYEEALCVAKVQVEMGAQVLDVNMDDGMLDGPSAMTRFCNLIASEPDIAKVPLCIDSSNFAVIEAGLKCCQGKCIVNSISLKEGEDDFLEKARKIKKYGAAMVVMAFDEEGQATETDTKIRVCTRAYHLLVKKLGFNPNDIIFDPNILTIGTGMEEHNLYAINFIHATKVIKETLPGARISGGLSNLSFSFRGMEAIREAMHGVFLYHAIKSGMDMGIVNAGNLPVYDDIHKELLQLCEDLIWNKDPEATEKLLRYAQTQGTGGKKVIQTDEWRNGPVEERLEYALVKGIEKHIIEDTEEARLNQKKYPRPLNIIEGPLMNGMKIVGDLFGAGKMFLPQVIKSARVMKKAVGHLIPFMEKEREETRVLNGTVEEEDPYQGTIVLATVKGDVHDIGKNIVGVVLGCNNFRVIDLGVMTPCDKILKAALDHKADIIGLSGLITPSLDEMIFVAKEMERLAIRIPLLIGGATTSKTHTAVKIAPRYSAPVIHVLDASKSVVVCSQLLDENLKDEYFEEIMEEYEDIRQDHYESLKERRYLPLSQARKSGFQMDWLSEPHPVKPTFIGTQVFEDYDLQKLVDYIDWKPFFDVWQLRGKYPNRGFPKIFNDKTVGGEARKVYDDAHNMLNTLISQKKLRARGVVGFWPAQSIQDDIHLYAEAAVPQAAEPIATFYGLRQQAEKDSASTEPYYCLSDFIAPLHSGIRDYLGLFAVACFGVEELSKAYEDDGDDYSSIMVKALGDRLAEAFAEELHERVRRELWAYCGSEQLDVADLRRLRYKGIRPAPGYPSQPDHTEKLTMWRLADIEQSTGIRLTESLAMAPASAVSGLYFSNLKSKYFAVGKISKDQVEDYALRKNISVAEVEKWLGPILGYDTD

B1: LZTR1-FLAG (other, human, UniProt Q8N653 1-840, looked up)
chain: MAGPGSTGGQIGAAALAGGARSKVAPSVDFDHSCSDSVEYLTLNFGPFETVHRWRRLPPCDEFVGARRSKHTVVAYKDAIYVFGGDNGKTMLNDLLRFDVKDCSWCRAFTTGTPPAPRYHHSAVVYGSSMFVFGGYTGDIYSNSNLKNKNDLFEYKFATGQWTEWKIEGRLPVARSAHGATVYSDKLWIFAGYDGNARLNDMWTIGLQDRELTCWEEVAQSGEIPPSCCNFPVAVCRDKMFVFSGQSGAKITNNLFQFEFKDKTWTRIPTEHLLRGSPPPPQRRYGHTMVAFDRHLYVFGGAADNTLPNELHCYDVDFQTWEVVQPSSDSEVGGAEVPERACASEEVPTLTYEERVGFKKSRDVFGLDFGTTSAKQPTQPASELPSGRLFHAAAVISDAMYIFGGTVDNNIRSGEMYRFQFSCYPKCTLHEDYGRLWESRQFCDVEFVLGEKEECVQGHVAIVTARSRWLRRKITQARERLAQKLEQEAAPVPREAPGVAAGGARPPLLHVAIREAEARPFEVLMQFLYTDKIKYPRKGHVEDVLLIMDVYKLALSFQLCRLEQLCRQYIEASVDLQNVLVVCESAARLQLSQLKEHCLNFVVKESHFNQVIMMKEFERLSSPLIVEIVRRKQQPPPRTPLDQPVDIGTSLIQDMKAYLEGAGAEFCDITLLLDGHPRPAHKAILAARSSYFEAMFRSFMPEDGQVNISIGEMVPSRQAFESMLRYIYYGEVNMPPEDSLYLFAAPYYYGFYNNRLQAYCKQNLEMNVTVQNVLQILEAADKTQALDMKRHCLHIIVHQFTKVSKLPTLRSLSQQLLLDIIDSLASHISDKQCAELGADI
notes: Expressed in HEK 293T, HeLa or U87 cells; used as cell lysate; also called LZTR1 wild type-FLAG; LZTR1 WT; not shown: FLAG tag at the C-terminus
binds: all assays above
